Measurements reported in patent publication US6703362 (CYTOGEN, dated 2004).

T1: hPEPT1 receptor domain (human PEPT1, amino acid residues 391-571), His-tag fusion protein (human, UniProt P46059 391-571)
T1 construct: purified under denaturing conditions; also called recombinant hPEPT1; not shown: poly-histidine tag (pET vector) at the NH2-terminal end
T1 sequence: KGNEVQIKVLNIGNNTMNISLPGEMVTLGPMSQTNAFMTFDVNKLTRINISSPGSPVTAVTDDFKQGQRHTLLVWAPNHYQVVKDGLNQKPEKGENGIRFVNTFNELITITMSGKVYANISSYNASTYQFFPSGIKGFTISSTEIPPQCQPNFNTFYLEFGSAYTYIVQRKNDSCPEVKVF

B1: PAX46 (peptide)
peptide: SRCTDNEQCPDTGTRSRSVSNARYFSSRLLKTHAPHRPAETVESCLAKPHTENSFTNVWKDDKTLDRYANYEGCLWNATGVVVCTGDETQCYGTWVPIGLAIPENEGGGSEGGGSEGGGSEGGGTKPPEYGDTPIPGYTYINPLDGTYPPGTEQNPANPNPSLEESQPLNTFMFQNNRFRNRQGALTVYTGTVTQGTDPVKTYYQYTPVSSKAMYDAYWNGKFRDCAFHSGFNEDPFVCEYQGQSSDLPQPPVNAGGGSGGGSGGGSEGGGSEGGGSEGGGSEGGGSGGGSGSGDFDYEKMANANKGAMTENADENALQSDAKGKLDSVATDYGAAIDGFIGDVSGLANGNGATGDFAGSNSQMAQVGDGDNSPLMNNFRQYLPSLPQSVECRPFVFSAGKPYEFSIDCDKINLFRGVFAFLLYVATFMYVFSTFANILRNKES
notes: Assayed as M13 phage clone displaying the insert
B2: 5PAX7 (peptide)
peptide: RWGWERSPSDYDSDMDLGARRYATRTHRAPPRVLKAPLPAETVESCLAKPHTENSFTNVWKDDKTLDRYANYEGCLWNATGVVVCTGDETQCYGTWVPIGLAIPENEGGGSEGGGSEGGGSEGGGTKPPEYGDTPIPGYTYINPLDGTYPPGTEQNPANPNPSLEESQPLNTFMFQNNRFRNRQGALTVYTGTVTQGTDPVKTYYQYTPVSSKAMYDAYWNGKFRDCAFHSGFNEDPFVCEYQGQSSDLPQPPVNAGGGSGGGSGGGSEGGGSEGGGSEGGGSEGGGSGGGSGSGDFDYEKMANANKGAMTENADENALQSDAKGKLDSVATDYGAAIDGFIGDVSGLANGNGATGDFAGSNSQMAQVGDGDNSPLMNNFRQYLPSLPQSVECRPFVFSAGKPYEFSIDCDKINLFRGVFAFLLYVATFMYVFSTFANILRNKES
notes: as for B1
B3: PAX9 (peptide)
peptide: RWPSVGYKGNGSDTIDVHSNDASTKRSLIYNHRRPLFPAETVESCLAKPHTENSFTNVWKDDKTLDRYANYEGCLWNATGVVVCTGDETQCYGTWVPIGLAIPENEGGGSEGGGSEGGGSEGGGTKPPEYGDTPIPGYTYINPLDGTYPPGTEQNPANPNPSLEESQPLNTFMFQNNRFRNRQGALTVYTGTVTQGTDPVKTYYQYTPVSSKAMYDAYWNGKFRDCAFHSGFNEDPFVCEYQGQSSDLPQPPVNAGGGSGGGSGGGSEGGGSEGGGSEGGGSEGGGSGGGSGSGDFDYEKMANANKGAMTENADENALQSDAKGKLDSVATDYGAAIDGFIGDVSGLANGNGATGDFAGSNSQMAQVGDGDNSPLMNNFRQYLPSLPQSVECRPFVFSAGKPYEFSIDCDKINLFRGVFAFLLYVATFMYVFSTFANILRNKES
notes: as for B1
B4: PAX38 (peptide)
peptide: SSKVSSPRDPTVPRKGGNVDYGCGHRSSARMPTSALSSITKCYTAETVESCLAKPHTENSFTNVWKDDKTLDRYANYEGCLWNATGVVVCTGDETQCYGTWVPIGLAIPENEGGGSEGGGSEGGGSEGGGTKPPEYGDTPIPGYTYINPLDGTYPPGTEQNPANPNPSLEESQPLNTFMFQNNRFRNRQGALTVYTGTVTQGTDPVKTYYQYTPVSSKAMYDAYWNGKFRDCAFHSGFNEDPFVCEYQGQSSDLPQPPVNAGGGSGGGSGGGSEGGGSEGGGSEGGGSEGGGSGGGSGSGDFDYEKMANANKGAMTENADENALQSDAKGKLDSVATDYGAAIDGFIGDVSGLANGNGATGDFAGSNSQMAQVGDGDNSPLMNNFRQYLPSLPQSVECRPFVFSAGKPYEFSIDCDKINLFRGVFAFLLYVATFMYVFSTFANILRNKES
notes: as for B1
B5: 5PAX3 (peptide)
peptide: RPKNVADAYSSQDGAAAEETSHASNAARKSPKHKPLRRPAETVESCLAKPHTENSFTNVWKDDKTLDRYANYEGCLWNATGVVVCTGDETQCYGTWVPIGLAIPENEGGGSEGGGSEGGGSEGGGTKPPEYGDTPIPGYTYINPLDGTYPPGTEQNPANPNPSLEESQPLNTFMFQNNRFRNRQGALTVYTGTVTQGTDPVKTYYQYTPVSSKAMYDAYWNGKFRDCAFHSGFNEDPFVCEYQGQSSDLPQPPVNAGGGSGGGSGGGSEGGGSEGGGSEGGGSEGGGSGGGSGSGDFDYEKMANANKGAMTENADENALQSDAKGKLDSVATDYGAAIDGFIGDVSGLANGNGATGDFAGSNSQMAQVGDGDNSPLMNNFRQYLPSLPQSVECRPFVFSAGKPYEFSIDCDKINLFRGVFAFLLYVATFMYVFSTFANILRNKES
notes: as for B1
B6: PAX43 (peptide)
peptide: RWCEKHKFTAARCSAGAGFERDASRPPQPAHRDNTNRNAAETVESCLAKPHTENSFTNVWKDDKTLDRYANYEGCLWNATGVVVCTGDETQCYGTWVPIGLAIPENEGGGSEGGGSEGGGSEGGGTKPPEYGDTPIPGYTYINPLDGTYPPGTEQNPANPNPSLEESQPLNTFMFQNNRFRNRQGALTVYTGTVTQGTDPVKTYYQYTPVSSKAMYDAYWNGKFRDCAFHSGFNEDPFVCEYQGQSSDLPQPPVNAGGGSGGGSGGGSEGGGSEGGGSEGGGSEGGGSGGGSGSGDFDYEKMANANKGAMTENADENALQSDAKGKLDSVATDYGAAIDGFIGDVSGLANGNGATGDFAGSNSQMAQVGDGDNSPLMNNFRQYLPSLPQSVECRPFVFSAGKPYEFSIDCDKINLFRGVFAFLLYVATFMYVFSTFANILRNKES
notes: as for B1
B7: PAX40 (peptide)
peptide: RASTQGGRGVAPEFGASVLGRGCGSATYYTNSTSCKDAMGHNYSAETVESCLAKPHTENSFTNVWKDDKTLDRYANYEGCLWNATGVVVCTGDETQCYGTWVPIGLAIPENEGGGSEGGGSEGGGSEGGGTKPPEYGDTPIPGYTYINPLDGTYPPGTEQNPANPNPSLEESQPLNTFMFQNNRFRNRQGALTVYTGTVTQGTDPVKTYYQYTPVSSKAMYDAYWNGKFRDCAFHSGFNEDPFVCEYQGQSSDLPQPPVNAGGGSGGGSGGGSEGGGSEGGGSEGGGSEGGGSGGGSGSGDFDYEKMANANKGAMTENADENALQSDAKGKLDSVATDYGAAIDGFIGDVSGLANGNGATGDFAGSNSQMAQVGDGDNSPLMNNFRQYLPSLPQSVECRPFVFSAGKPYEFSIDCDKINLFRGVFAFLLYVATFMYVFSTFANILRNKES
notes: as for B1
B8: PAX35 (peptide)
peptide: RSITDGGINEVDLSSVSNVLENANSHRAYRKHRPTLKRPAETVESCLAKPHTENSFTNVWKDDKTLDRYANYEGCLWNATGVVVCTGDETQCYGTWVPIGLAIPENEGGGSEGGGSEGGGSEGGGTKPPEYGDTPIPGYTYINPLDGTYPPGTEQNPANPNPSLEESQPLNTFMFQNNRFRNRQGALTVYTGTVTQGTDPVKTYYQYTPVSSKAMYDAYWNGKFRDCAFHSGFNEDPFVCEYQGQSSDLPQPPVNAGGGSGGGSGGGSEGGGSEGGGSEGGGSEGGGSGGGSGSGDFDYEKMANANKGAMTENADENALQSDAKGKLDSVATDYGAAIDGFIGDVSGLANGNGATGDFAGSNSQMAQVGDGDNSPLMNNFRQYLPSLPQSVECRPFVFSAGKPYEFSIDCDKINLFRGVFAFLLYVATFMYVFSTFANILRNKES
notes: as for B1
B9: 5PAX12 (peptide)
peptide: RGWKCEGSQAAYGDKDIGRSRGCGSITKNNTNHAHPSHGAVAKIAETVESCLAKPHTENSFTNVWKDDKTLDRYANYEGCLWNATGVVVCTGDETQCYGTWVPIGLAIPENEGGGSEGGGSEGGGSEGGGTKPPEYGDTPIPGYTYINPLDGTYPPGTEQNPANPNPSLEESQPLNTFMFQNNRFRNRQGALTVYTGTVTQGTDPVKTYYQYTPVSSKAMYDAYWNGKFRDCAFHSGFNEDPFVCEYQGQSSDLPQPPVNAGGGSGGGSGGGSEGGGSEGGGSEGGGSEGGGSGGGSGSGDFDYEKMANANKGAMTENADENALQSDAKGKLDSVATDYGAAIDGFIGDVSGLANGNGATGDFAGSNSQMAQVGDGDNSPLMNNFRQYLPSLPQSVECRPFVFSAGKPYEFSIDCDKINLFRGVFAFLLYVATFMYVFSTFANILRNKES
notes: as for B1
B10: PAX17 (peptide)
peptide: SQVDSFRNSFRWYEPSRALCHGCGKRDTSTTRIHNSPSDSYPTRAETVESCLAKPHTENSFTNVWKDDKTLDRYANYEGCLWNATGVVVCTGDETQCYGTWVPIGLAIPENEGGGSEGGGSEGGGSEGGGTKPPEYGDTPIPGYTYINPLDGTYPPGTEQNPANPNPSLEESQPLNTFMFQNNRFRNRQGALTVYTGTVTQGTDPVKTYYQYTPVSSKAMYDAYWNGKFRDCAFHSGFNEDPFVCEYQGQSSDLPQPPVNAGGGSGGGSGGGSEGGGSEGGGSEGGGSEGGGSGGGSGSGDFDYEKMANANKGAMTENADENALQSDAKGKLDSVATDYGAAIDGFIGDVSGLANGNGATGDFAGSNSQMAQVGDGDNSPLMNNFRQYLPSLPQSVECRPFVFSAGKPYEFSIDCDKINLFRGVFAFLLYVATFMYVFSTFANILRNKES
notes: as for B1
B11: PAX45 (peptide)
peptide: SFQVYPDHGLERHALDGTGPLYAMPGRWIRARPQNRDRQAETVESCLAKPHTENSFTNVWKDDKTLDRYANYEGCLWNATGVVVCTGDETQCYGTWVPIGLAIPENEGGGSEGGGSEGGGSEGGGTKPPEYGDTPIPGYTYINPLDGTYPPGTEQNPANPNPSLEESQPLNTFMFQNNRFRNRQGALTVYTGTVTQGTDPVKTYYQYTPVSSKAMYDAYWNGKFRDCAFHSGFNEDPFVCEYQGQSSDLPQPPVNAGGGSGGGSGGGSEGGGSEGGGSEGGGSEGGGSGGGSGSGDFDYEKMANANKGAMTENADENALQSDAKGKLDSVATDYGAAIDGFIGDVSGLANGNGATGDFAGSNSQMAQVGDGDNSPLMNNFRQYLPSLPQSVECRPFVFSAGKPYEFSIDCDKINLFRGVFAFLLYVATFMYVFSTFANILRNKES
notes: as for B1
B12: PAX18 (peptide)
peptide: SFLRFQSPRFEDYSRTISRLRNATNPSNVSDAHNNRALAAETVESCLAKPHTENSFTNVWKDDKTLDRYANYEGCLWNATGVVVCTGDETQCYGTWVPIGLAIPENEGGGSEGGGSEGGGSEGGGTKPPEYGDTPIPGYTYINPLDGTYPPGTEQNPANPNPSLEESQPLNTFMFQNNRFRNRQGALTVYTGTVTQGTDPVKTYYQYTPVSSKAMYDAYWNGKFRDCAFHSGFNEDPFVCEYQGQSSDLPQPPVNAGGGSGGGSGGGSEGGGSEGGGSEGGGSEGGGSGGGSGSGDFDYEKMANANKGAMTENADENALQSDAKGKLDSVATDYGAAIDGFIGDVSGLANGNGATGDFAGSNSQMAQVGDGDNSPLMNNFRQYLPSLPQSVECRPFVFSAGKPYEFSIDCDKINLFRGVFAFLLYVATFMYVFSTFANILRNKES
notes: as for B1

These binders were tested against T1, hPEPT1 receptor domain (human PEPT1, …) (assay: phage ELISA, plate coated with hPEPT1 domain).
Procedure: 6.6. Receptor ELISA Procedure 96 well plates were coated overnight with GIT receptor, BSA and, optionally, IDE (insulin degrading enzyme, an irrelevant His-fusion protein)or hTF. The plates were blocked for one hour with 0.5% BSA-PBS. After clarification, the amplified phage were diluted 1:100 in […] plus 0.05% Tween 20 in PBS and added to the plates. Following incubation of the plates on a rotator for 1 to 2 hours, the plates were washed 5 times with 1% BSA plus 0.05% Tween 20 in PBS. […] After the plates were washed 5 times, as described above, TMB substrate was added to the wells. The plates were read at 650 nm absorbance.

In order of falling OD:
1. B10  0.514 OD
2. B8  0.474 OD
3. B7  0.461 OD
4. B1  0.429 OD
5. B11  0.419 OD
6. B12  0.416 OD
7. B6  0.345 OD
8. B3  0.312 OD
9. B4  0.292 OD
10. B9  0.227 OD
11. B5  0.173 OD
12. B2  0.171 OD
